From patent US20250115926A1, “DEREGULATED DHS AND TYRA ENZYMES OF GRASSES ENABLE EFFICIENT PRODUCTION OF BOTH TYROSINE AND PHENYLALANINE” (Wisconsin Alumni Research Foundation, priority 2023, published 2025)

Key:
[1] = test system: Nicotiana benthamiana leaves; assay: Transient expression of TyrA genes in Nicotiana benthamiana leaves (CaMV 35S promoter), tyrosine by HPLC; format: in vivo; settings: infiltrated leaves, 72 hours
Method: Agrobacterium tumefaciens strain GV3101 transformed with the plant expression constructs were grown at 28° C. for 24 to 36 hours in 10 mL of LB liquid media containing the corresponding antibiotics. The saturated cultures were spun down at 3,000 g for 5 minutes at room temperature and washed twice with 3 mL of induction media (IM; 10 mM MES [2-(N-morpholino) ethanesulfonic acid] buffer pH 5.6, 0.5% glucose, 2 mM NaH2PO4, 20 mM NH4Cl, 1 mM MgSO4, 2 mM KCl, 0.1 mM CaCl2), 0.01 mM FeSO4, and 0.2 mM acetosyringone). After washing, bacteria cultures were incubated in IM for 2 to 3 hours at room temperature in the dark, pelleted at 3000 g for 5 minutes, and resuspended into 3 mL of 10 mM MES buffer pH 5.6 with 0.2 mM acetosyringone. OD600nm was adjusted to a final density of 0.25 units for pAGM4673::TyrA (FIG. 3F) and pICH47822::DHS (FIG. 5A) infiltration, or 0.5 units for pAGM4673::TyrA-DHS co-expression constructs (FIG. 5B) using 10 mM MES buffer pH 5.6 with 0.2 mM acetosyringone. For infiltration of pICH47822::DHS constructs, the Agrobacterium suspensions were adjusted to OD600nm=0.5 and mixed with an equal volume of a suspension of an Agrobacterium clone transformed with pICH4780::p19 under control of the Arabidopsis ubiquitin ligase promoter adjusted to OD600nm=0.5, resulting in a final mixture of 0.25 OD600nm units for each construct. […] Nicotiana benthamiana plants of around 4-weeks-old were infiltrated close to the end of the light period into four different spots per plant, distributed into two leaves at two infiltrations per leaf, with each individual spot corresponding with a different construct/treatment. […]
The infiltrated leaf areas, excluding the midrib and major veins, were harvested at 72 hours after infiltration and frozen immediately in liquid nitrogen. […] A tyrosine peak was detected at the retention time of ˜3.5 minutes using fluorescence detection mode (excitation wavelength 274 nm, emission wavelength 303 nm) and quantified with an authentic tyrosine standard (Alfa Acsar, catalog number AAA1114118). […]

[2] = TyrA feedback inhibition by tyrosine (recombinant enzymes); format: biochemical; settings: FIG. 12
[3] = test system: Nicotiana benthamiana leaves; assay: Co-expression of BdTyrA and BdDHS enzymes in Nicotiana benthamiana leaves; format: in vivo
From the text: Gene expression data in Brachypodium (FIG. 4B) indicate that BdTyrA1 is co-expressed with BdDHS1b and BdPTAL in the internodes, where we detected a high rate of tyrosine production (FIG. 2). […] We therefore hypothesized that BdTyrA1 and BdDHS1b may co-operate in the high production of tyrosine and phenylalanine observed in grass tissues. To test this possibility, we co-expressed in planta different combinations of BdTyrA enzymes and BdDHS enzymes and measured the impact on phenylalanine and tyrosine levels. To this end, we took advantage of the Golden Gate modular cloning system^52 and assembled the BdTyrA and BdDHS expression cassettes into the same vector backbone (FIG. 13). To avoid causing a strong over-expression, BdTyrA and BdDHS were driven by RuBisCO small subunit promoters from Arabidopsis (PAtRbcS3B) and tomato (PSIRbcS3A), respectively (FIG. 13)^51. […] Similarly, no significant additive effects were observed upon co-expression of the BdTyrA enzymes with feedback-regulated BdDHS2 (FIG. 5B).
Agrobacterium tumefaciens strain GV3101 transformed with the plant expression constructs were grown at 28° C. for 24 to 36 hours in 10 mL of LB liquid media containing the corresponding antibiotics. […]
Aromatic amino acids and shikimate were detected using a Vanquish Horizon Binary UHPLC (Thermo Scientific) coupled to a Q Exactive mass spectrometer (Thermo Scientific). […]

type of inhibition by tyrosine with respect to arogenate [2] | Molecule | tyrosine content compared to the GUS control [1] | tyrosine levels relative to the tdTom+YPet control ([3]; RuBisCO small subunit promoters (FIG. 5B)) [times] | decrease of phenylalanine levels compared to YPet with tdTom control ([3]; expressed with tdTom control (FIG. 5B)) [times]
 | BdTyrA2: TyrA2 arogenate dehydrogenase of Brachypodium distachyon, SEQ ID NO: 35 (protein, Brachypodium distachyon) MSSSGRFHQPPSCRRPAALAQSLRASTTTVTCRWRQQYHHPLAAAPLRLRAVPVRATDAARQPFDHLSGAVKSEEGTHPRLKIAIVGFGNYGQFLARTMVQQGHTVLAHSRSDHSAAAATIGASFYADAHDLCECQPDVVLLSTSILSAEAVLRSLPVHRFRRSTLFADVLSVKEFPKNLLLAYLPGDFDVICTHPMFGPESARDGWAGLPFVFDEVRVGDGPARRARADAFLDVFAREGCRMVEMSCAEHDAHAAETQFLTHTVGRMLATLDLKSTPINTKGYETLLRLVDNTCSDSFDLYNGLFMYNNNATELLHRLESAMDSVKRRLFDGLHEVLRRQLFEGSPPLNRDSSFPAESSLDDGR | did not significantly increase tyrosine levels |  | 
competitive | BdTyrAnc: non-canonical TyrA enzyme of Brachypodium distachyon, SEQ ID NO: 37 (protein, Brachypodium distachyon) MASSLVHLSSPAGGRTAAAPPSLLSRFSPNFCAFATLRPGPTRPTAATPKHARARTCAEQEQKQEVAAPCRDAYEKPAVWNTTAADSAEAAPPLRVGIIGFGNFGQFIARGIQRQGHAVLATSRSDYSAYCSAQGIRYFRSLEALCEEQPNVLLVCSSILSTEAVVRAIPFHKLRSDTIVADVLSVKQFPRNLLLEILPPEFGIVCTHPMFGPESGKHGWSTLPFVYDKVRLADKGDQKANCGQFLSIFEGEGCRMVEMSCAEHDRHAAASQFITHTIGRVLAQLNLKSTPINTKGFEALLKLTENTVSDSFDLYYGLFMYNVNATEQIEKLERAFEKVKQMLYGRLHDILRKQIVERVPI | 8 times | ~100 | 4
 | SbTyrAnc: non-canonical TyrA enzyme of Sorghum bicolor, SEQ ID NO: 43 (protein, Sorghum bicolor) MASSLRHFAGLGCFPAVASTSGSTCCLRRYTPNFCAFVALRPISPPAATATATAKALTSPSPVEQHLQAVVPCHGISDPPAASSAAAVPAAPLRVGIVGFGNFGQFIAGGLQRQGHVVLAASRSDYSVYCASHGIRFFRSVDALCEEQPDVLLICSSILSTEGVVRAIPFRKLRHDTIVADVLSVKEFPRNLLLEVLPPGFGIICTHPMFGPESGKHGWGKLPFVFDKVRVAEDGDQAAKCDQFLSIFEQEGCRMVEMSCAEHDRYAAGSQFITHTIGRVLSQLNLKSTPINTKGYETLLQLTKNTVSDSFDLYYGLFMYNVNATEQLDKLEMAFEKVRQMLSGRLHDFIRKQIVERAAHVPADPSGKLANGLSSSPAARLL | 14 times |  | 
